Measured values as given in publication PMC7253169.

What was measured:
[1] = target: BG505 SOSIP.664 Env trimer (UniProt Q2N0S6); assay: ELISA; conditions: parent: 1
[2] = target: BG505 SOSIP.664 Env trimer (HIV-1 (BG505)) (UniProt Q2N0S6)
[3] = target: BG505 SOSIP.664 Env trimer (HIV-1 (BG505)) (UniProt Q2N0S6); assay: ELISA; direct ELISA: plates coated with soluble BG505 SOSIP trimer (0.2 or 2 ng/μl) in PBS pH 7.4; serially diluted Fab mutants from cell culture supernatant, room temperature 1 hour; goat anti-human lambda HRP; compared with wild-type Fab on the same plate

Substance | ratio to parent [1] | neutralization on BG505 pseudovirus; fold reduction of potency against wild-type Fab [2] | fold reduction of binding in ELISA against wild-type Fab [3]
Fab NC-Cow1 D:D5A | 1.9 |  | 
Fab NC-Cow1 D:D26A | 0.8 |  | 
Fab NC-Cow1 D:E1A | 1.2 |  | 
Fab NC-Cow1 D:G29A | 64.2 |  | 
Fab NC-Cow1 D:H42A | 1 |  | 
Fab NC-Cow1 D:M24A | 73.8 |  | 
Fab NC-Cow1 D:Q14A | 0.9 |  | 
Fab NC-Cow1 D:Q15A | 1.4 |  | 
Fab NC-Cow1 D:Q34A | 1.3 |  | 
Fab NC-Cow1 D:R43A | 0.8 |  | 
Fab NC-Cow1 D:S19A | 1 |  | 
Fab NC-Cow1 D:T7A | 1.3 |  | 
Fab NC-Cow1 D:Y40A | 1 |  | 
Fab NC-Cow1 H:N100A | 1.6 |  | 
NC-Cow1 Fab ArgD11 alanine mutant |  | > 9 fold | > 9 fold
NC-Cow1 Fab ArgD27 alanine mutant |  | > 9 fold | > 9 fold
NC-Cow1 Fab ArgD33 alanine mutant |  | > 9 fold | > 9 fold
NC-Cow1 Fab ArgD43 alanine mutant |  | > 3 fold | 
NC-Cow1 Fab AsnH100 alanine mutant |  | > 3 fold | 
NC-Cow1 Fab GluD1 alanine mutant |  | > 3 fold | 
NC-Cow1 Fab LysH100b alanine mutant |  | > 3 fold | 
NC-Cow1 Fab TyrD6 alanine mutant |  | > 9 fold | > 9 fold
NC-Cow1 Fab TyrD31 alanine mutant |  | > 9 fold | > 9 fold
NC-Cow1 Fab TyrD40 alanine mutant |  | > 3 fold | 
